Two molecules from article PMC3239189 (Nucleic Acids Research, 2011) can be followed below.

For one series, the target named is T1, LHK-Exo (Laribacter hongkongensis HLHK9, UniProt C1D7P6 1-203).
T1 sequence: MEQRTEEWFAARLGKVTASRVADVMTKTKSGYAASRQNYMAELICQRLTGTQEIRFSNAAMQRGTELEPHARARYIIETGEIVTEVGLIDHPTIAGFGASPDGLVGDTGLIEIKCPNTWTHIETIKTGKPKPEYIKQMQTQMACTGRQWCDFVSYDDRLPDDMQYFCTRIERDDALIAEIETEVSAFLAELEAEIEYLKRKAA
The series is described as follows: X-ray crystallography.

The series “AUC” deals with the molecule itself. The series is described as follows: AUC.

On to TTTTT (ssDNA, 5'-phosphate) [5'-PO4-(dT)5], for which the binding result with LHK-Exo is “binds”.

B1: LHK-Exo (alkaline exonuclease from Laribacter hongkongensis HLHK9, LHK_01497) (enzyme, UniProt C1D7P6 1-203, looked up)
chain: T1 sequence
In general, stoichiometry N refers to the number of molecules, sites or subunits per partner or assembly. B1: in “AUC”, the “stoichiometry N” value was 3.
